Measured values reported in the supplement of paper PMC12042874.
± gives the uncertainty stated by the source.

Test: amyloid nucleation score (Sup35N fusion, yeast selection) (log enrichment); library NNK1; higher = more nucleation; inactive = no reads after selection
In short: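 For the nucleation score, DiMSum gave the log enrichment of output over input reads, centred on the mode score of non-aggregating sequences. Psi-negative yeast expressing Sup35N fused to peptides of 20 random codons were induced with 100 μM copper sulfate for 24 hours and grown 7 days at 30°C on medium lacking adenine and uracil. Input and output plasmid inserts were Illumina-sequenced, and sequences with under 100 input reads were excluded.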

## FCNTLCAFW
  amyloid nucleation score: 1.91 ± 0.22

## AEGCRIPGRQSYRYGDICPR
  amyloid nucleation score: -0.373 ± 0.39

## FKYSFMIYNLARSVCYCTVS
  amyloid nucleation score: -0.002 ± 1.4

## LYAIYTAFNRVSSYSNMPVM
  amyloid nucleation score: -0.599 ± 0.92

## SWCSCQV
  amyloid nucleation score: 1.16 ± 0.6

## LADGLTVRSKYYISVNSVGS
  amyloid nucleation score: -0.16 ± 0.4

## QCVFYMWVSFEELK
  amyloid nucleation score: 0.418 ± 0.97

## WGNLCRNYD
  amyloid nucleation score: 0.004 ± 0.28

## DSGWRWCNRSTSVGNVNVMR
  amyloid nucleation score: 0.171 ± 0.43

## GRVDWMCEYLKLMRSVGWSR
  amyloid nucleation score: 0.545 ± 0.41

## ATCCNSWIAF
  amyloid nucleation score: 7.035 ± 0.054

## LCAMIPAVGRYWSCVVGHSV
  amyloid nucleation score: -0.013 ± 1.6

## LNSYVRG
  amyloid nucleation score: 0.201 ± 0.3

## NVLVGFI
  amyloid nucleation score: -0.851 ± 0.56

## VRLCIVHHG
  amyloid nucleation score: 0.527 ± 0.49

## RVWYGFYCELITTPRFASGV
  amyloid nucleation score: -0.322 ± 1.7

## MYRMFRSFKFEWYCELWVLS
  amyloid nucleation score: -0.125 ± 0.5

## YVVWDICKRVLLQWRYPPFS
  amyloid nucleation score: -0.077 ± 1.7

## DLDCFRFVLSLGDFMGRCVS
  amyloid nucleation score: 0.266 ± 0.42

## VFGDT
  amyloid nucleation score: 0.149 ± 0.97

## KPLEDFVDYKMMLMIHEEVC
  amyloid nucleation score: 0.763 ± 0.97

## YYMLGYLDSYLWSENDLWMC
  amyloid nucleation score: 0.642 ± 0.36

## CIDMFNLLNLKHASYWVVVY
  amyloid nucleation score: -0.563 ± 0.52

## PVSDLVIFLQLRFRNTCMLP
  amyloid nucleation score: 0.952 ± 0.92

## LVMCVFLSASVYVFPTHLSS
  amyloid nucleation score: -1.18 ± 1.4

## QIAVWPSYFSGDIGDMSRKG
  amyloid nucleation score: 0.017 ± 0.56

## RMIIYNKYRCNSYLTNMGFG
  amyloid nucleation score: 2 ± 0.34

## TLFMRVGYR
  amyloid nucleation score: 3.87 ± 0.12

## RAVGSDWGKVVFLLMNSEES
  amyloid nucleation score: 0.212 ± 0.31

## MVVVIIYL
  amyloid nucleation score: 1.53 ± 0.35

## YVSTIN
  amyloid nucleation score: 0.629 ± 0.42

## SVIAVSLETQVIAWVRYYPK
  amyloid nucleation score: -0.315 ± 0.55

## SSQVIVCDVYSQVTRFSFCE
  amyloid nucleation score: 0.557 ± 0.29

## RQDVT
  amyloid nucleation score: 0.281 ± 0.61

## IVNNIVCSAGVDPFSQHCMD
  amyloid nucleation score: 1.84 ± 0.67

## NVNETT
  amyloid nucleation score: -0.547 ± 1.6

## WSFTK
  amyloid nucleation score: -0.284 ± 0.68

## LKAIFVFFVEFRDPLIMRES
  amyloid nucleation score: 0.269 ± 0.79

## PKVFIEKAAIYIFAL
  amyloid nucleation score: 0.029 ± 0.51

## ATLMYWASSWSCWFTKGTAV
  amyloid nucleation score: -0.413 ± 0.37

## RNCNTT
  amyloid nucleation score: 0.034 ± 0.61

## GIGLGFQ
  amyloid nucleation score: -0.563 ± 0.53

## LKAGFM
  amyloid nucleation score: -0.102 ± 0.28

## CPDLGYACWYIINRIPSTWC
  amyloid nucleation score: -1.3 ± 1.2

## WSTHRQESFALYSKCMEVRR
  amyloid nucleation score: 0.186 ± 0.28

## CERLKT
  amyloid nucleation score: 0.784 ± 0.35

## SSGFVYIYSSKSLGANSKNL
  amyloid nucleation score: -0.176 ± 1

## DHASGLVLLCLVWLGLMSLK
  amyloid nucleation score: 0.501 ± 0.43

## LVVDRGVNGCAFSWDTNDLS
  amyloid nucleation score: -0.52 ± 0.71

## AGSGMLSKLVLLSRKSVSCN
  amyloid nucleation score: 1.02 ± 0.74

## DLSKFGKHFCLLMHYGFPNH
  amyloid nucleation score: -0.3 ± 0.28

## DVQQPPMDSISH
  amyloid nucleation score: 1.17 ± 0.57

## LCVNERVHQSLSRQRIPNCL
  amyloid nucleation score: 1.26 ± 0.61

## NWVRFIHFYYNGTRLWAEFV
  amyloid nucleation score: -0.915 ± 0.74

## GSGVDSRVSCKKFILSLVGA
  amyloid nucleation score: -0.39 ± 1.7

## SVVLMLKYRYMHLTGLWSWS
  amyloid nucleation score: 0.16 ± 0.46

## SCIVLYMKGSGISCTNYTYC
  amyloid nucleation score: 6.094 ± 0.054

## LNGPTVTKECRGAYMVMPGT
  amyloid nucleation score: -0.431 ± 1.1

## VALLTNWFTGPQPLTMFTRV
  amyloid nucleation score: 1.14 ± 0.9

## KGQFF
  amyloid nucleation score: 0.835 ± 0.75

## HKCDSVKVGGSCNKTAYSRC
  amyloid nucleation score: 0.787 ± 0.59

## ILIFVNSVYRNVSSR
  amyloid nucleation score: 5.27 ± 0.056

## PDFIHFY
  amyloid nucleation score: 0.182 ± 0.38

## SVPVQD
  amyloid nucleation score: 0.633 ± 0.4

## RPQYLCAAVHEVQRFGHNR
  amyloid nucleation score: -0.79 ± 0.51

## SQPMSS
  amyloid nucleation score: 0.591 ± 0.31

## QYAIFRLSKTWIIHSMDKNA
  amyloid nucleation score: 0.269 ± 0.21

## KNNIDIAFAV
  amyloid nucleation score: -0.065 ± 0.98

## LWIQMLAWCSRCM
  amyloid nucleation score: 1.65 ± 0.32

## TFMAARQWLGPNYDGGQGLK
  amyloid nucleation score: -0.2 ± 1

## IPCDFDRISSSVFAKCNYSI
  amyloid nucleation score: -0.455 ± 0.24

## VLYLDLFWRPPSLKGLL
  amyloid nucleation score: -0.17 ± 0.32

## QCGEICLCRSAGVVHSPRGW
  amyloid nucleation score: -0.513 ± 0.55

## SVNLSI
  amyloid nucleation score: -0.196 ± 0.37

## KCTCSVKCSCIFCFIICCVC
  amyloid nucleation score: -1.2 ± 1.7

## VHKAGDFNVTAFVNSNVFVS
  amyloid nucleation score: inactive

## LLSIVPPDIFCQFSGHGRLT
  amyloid nucleation score: 0.26 ± 0.62

## TLGVMEGRNSDSLTVCRVGS
  amyloid nucleation score: 1.06 ± 0.5

## CWTLSDVLFDNNLFTMNMGP
  amyloid nucleation score: -0.291 ± 0.67

## CRISTGNGVI
  amyloid nucleation score: inactive

## RLVSFKCFCFLFLIDFMQGV
  amyloid nucleation score: 0.495 ± 0.45

## NEFKFKVRTKEFRFEVCLKY
  amyloid nucleation score: inactive

## LLDRLRRTGLRRCYVSGEFP
  amyloid nucleation score: 5.89 ± 0.084

## GLKGDIWDMGYSFGWRDGDA
  amyloid nucleation score: 0.297 ± 0.51

## RTSSIMSFPQCSCYSRRGVL
  amyloid nucleation score: 1.73 ± 0.33

## MCGNDWVYGDWIRSEIHGSS
  amyloid nucleation score: -0.403 ± 0.59

## NNMLILFTCGFYYKVYSPVQ
  amyloid nucleation score: 3.18 ± 0.17
